Laboratory results taken from patent US20180344736A1 (ROCHESTER, published 2018).

Key:
Cdc20 = molecular target: T1, Cdc20 (human, UniProt Q12834 1-499); assay: IP-immunoblot of transfected cells with or without nocodazole (FIG. 9K)
T1 construct: Protein in cell lysate, co-immunoprecipitation

Cdh1 = molecular target: T2, Cdh1 (human, UniProt Q9UM11 1-496, limits assumed); assay: IP-immunoblot of transfected Parkin domain constructs, mitotic cells (FIG. 10A)
T2 construct: Protein in cell lysate, co-immunoprecipitation
T2 sequence (Q9UM11 whole entry, the tested form may be a part): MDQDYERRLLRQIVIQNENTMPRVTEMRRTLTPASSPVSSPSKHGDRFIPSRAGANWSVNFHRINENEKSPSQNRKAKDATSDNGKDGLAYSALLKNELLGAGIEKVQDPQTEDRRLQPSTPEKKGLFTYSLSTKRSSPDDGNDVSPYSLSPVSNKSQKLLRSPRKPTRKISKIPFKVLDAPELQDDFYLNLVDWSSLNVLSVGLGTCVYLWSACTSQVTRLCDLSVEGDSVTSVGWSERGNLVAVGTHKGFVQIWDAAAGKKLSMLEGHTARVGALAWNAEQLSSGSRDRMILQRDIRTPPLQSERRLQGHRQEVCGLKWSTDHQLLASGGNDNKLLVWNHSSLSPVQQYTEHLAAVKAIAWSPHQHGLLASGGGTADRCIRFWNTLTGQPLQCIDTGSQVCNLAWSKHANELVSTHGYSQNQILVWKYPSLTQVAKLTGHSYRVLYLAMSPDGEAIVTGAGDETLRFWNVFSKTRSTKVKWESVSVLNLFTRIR

Parkin (endogenous) = molecular target: T3, Parkin (endogenous) (human, UniProt O60260 1-465); assay: not told (data not shown)
T3 construct: Endogenous protein immunoprecipitated from cell lysates; also called Endogenous Parkin

T1 sequence (Q12834 whole entry): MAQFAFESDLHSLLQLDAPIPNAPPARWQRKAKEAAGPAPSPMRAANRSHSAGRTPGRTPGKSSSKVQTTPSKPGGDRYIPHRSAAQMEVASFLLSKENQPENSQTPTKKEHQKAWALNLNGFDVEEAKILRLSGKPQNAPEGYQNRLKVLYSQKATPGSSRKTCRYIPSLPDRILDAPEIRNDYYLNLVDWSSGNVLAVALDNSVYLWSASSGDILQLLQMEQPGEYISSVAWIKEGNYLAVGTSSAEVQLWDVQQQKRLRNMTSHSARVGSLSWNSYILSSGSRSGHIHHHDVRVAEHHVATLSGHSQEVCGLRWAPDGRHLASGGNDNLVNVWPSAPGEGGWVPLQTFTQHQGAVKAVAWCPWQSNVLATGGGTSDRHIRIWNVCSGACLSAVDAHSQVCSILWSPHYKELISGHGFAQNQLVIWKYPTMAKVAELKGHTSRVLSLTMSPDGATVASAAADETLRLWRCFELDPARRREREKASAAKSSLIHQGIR

B1: Parkin S378A (enzyme, UniProt O60260 1-465, looked up, not shown: large carriers)
chain: MIVFVRFNSSHGFPVEVDSDTSIFQLKEVVAKRQGVPADQLRVIFAGKELRNDWTVQNCDLDQQSIVHIVQRPWRKGQEMNATGGDDPRNAAGGCEREPQSLTRVDLSSSVLPGDSVGLAVILHTDSRKDSPPAGSPAGRSIYNSFYVYCKGPCQRVQPGKLRVQCSTCRQATLTLTQGPSCWDDVLIPNRMSGECQSPHCPGTSAEFFFKCGAHPTSDKETSVALHLIATNSRNITCITCTDVRSPVLVFQCNSRHVICLDCFHLYCVTRLNDRQFVHDPQLGYSLPCVAGCPNSLIKELHHFRILGEEQYNRYQQYGAEECVLQMGGVLCPRPGCGAGLLPEPDQRKVTCEGGNGLGCGFAFCRECKEAYHEGECAAVFEASGTTTQAYRVDERAAEQARWEAASKETIKKTTKPCPRCHVPVEKNGGCMHMKCPQPQCRLEWCWNCGCEWNRVCMGDHWFDV
notes: Transfected construct, IP-immunoblot with or without nocodazole
B1: no binding (Cdc20).

B2: Parkin RING1 domain (other, UniProt O60260 238-293, looked up, not shown: small tags and cut ends)
chain: CITCTDVRSPVLVFQCNSRHVICLDCFHLYCVTRLNDRQFVHDPQLGYSLPCVAGC
notes: domain: RING1
B2: no binding (Cdh1).

B3: UbcH10 (enzyme, UniProt O00762 2-179, looked up)
chain: ASQNRDPAATSVAAARKGAEPSGGAARGPVGKRLQQELMTLMMSGDKGISAFPESDNLFKWVGTIHGAAGTVYEDLRYKLSLEFPSGYPYNAPTVKFLTPCYHPNVDTQGNICLDILKEKWSALYDVRTILLSIQSLLGEPNIDSPLNTHAAELWKNPTAFKKYLQETYSKQVTSQEP
notes: also called the E2 for APC/C in mitosis
B3: no binding (Parkin (endogenous)).
